Here are results for three variants from publication PMC3017119, “Structural Basis for the Recognition of Cellular mRNA Export Factor REF by Herpes Viral Proteins HSV-1 ICP27 and HVS ORF57” (PLoS Pathogens, 2011).

B1: unnamed (parent)
chain 1: MATDIDMLIDLGLDLSDSDLDEDPPEPAESRRDDLESDSSGECSSSDEDMEDPHGEDGPEPILDAARPAVRPSRPEDPGVPSTQTPRPTERQGPNDPQPAPHSVWSRLGARRPSCSPEQHGGKVARLQPPPTKAQPARGGRRGRRRGRGRGGPGAADGLSDPRRRAPRTNRNPGGPRPGAGWTDGPGAPHGEAWRGSEQPDPPGGQRTRGVRQAPPPLMTLAIAPPPADPRAPAPERKAPAADTIDATTRLVLRSISERAAVDRISESFGRSAQVMHDPFGGQPFPAANSPWAPVLAGQGGPFDAETRRVSWETLVAHGPSLYRTFAGNPRAASTAKAMRDCVLRQENFIEALASADETLAWCKMCIHHNLPLRPQDPIIGTTAAVLDNLATRLRPFLQCYLKARGLCGLDELCSRRRLADIKDIASFVFVILARLANRVERGVAEIDYATLGVGVGEKMHFYLPGACMAGLIEILDTHRQECSSRVCELTASHIVAPPYVHGKYFYCNSLF
chain 2: not shown

This assay covers variants of B1. The assay is described as follows: co-immunoprecipitation with densitometry of Western blot. To be noted: 293T cells transfected with GFP-tagged ICP27 and its mutants, IP with polyclonal GFP-specific antibody and Protein A agarose, 3 independent experiments, read off a plot, scale: relative binding normalised against GFP control.
On to chain 1 W105A, for which the response worked out at 0.32.

chain 1 R107A L108A: the response amounted to 0.37.

On to chain 1 W105A R107A L108A, for which the response is 0.3.
